Measured values taken from US11306156.
Values belong to the substance of their own block, whether it stands above or below them.

What was measured:
[1] = biological target: tissue factor (TF) antigen (UniProt P13726); experiment: SPR; reference wild-type D3H44 Fab
[2] = biological target: tissue factor (TF) antigen (UniProt P13726); experiment: SPR, Fab captured on anti-penta His, TF injected, 1:1 fit
[3] = biological target: tissue factor (TF) antigen (UniProt P13726); experiment: SPR, Fab captured on anti-penta-His, TF as analyte, 1:1 fit
[4] = biological target: tissue factor (TF) antigen (UniProt P13726); experiment: SPR, Fab captured by anti-His, TF as analyte
[5] = biological target: tissue factor (TF) antigen (UniProt P13726); experiment: SPR (ProteOn XPR36): His-tagged Fab captured on anti-penta-His surface, TF as analyte, 1:1 fit
[6] = biological target: tissue factor (TF) antigen (UniProt P13726); experiment: SPR (ProteOn XPR36), His-tagged Fab captured on anti-penta His, TF as analyte, 1:1 fit
[7] = biological target: tissue factor (TF) antigen (UniProt P13726); experiment: SPR; against wild-type D3H44 Fab
[8] = biological target: tissue factor (TF) antigen (UniProt P13726); experiment: SPR (ProteOn), Fab captured on anti-penta His, TF as analyte, 1:1 fit

Sequence of tissue factor (TF) antigen (P13726 33-251 limits assumed): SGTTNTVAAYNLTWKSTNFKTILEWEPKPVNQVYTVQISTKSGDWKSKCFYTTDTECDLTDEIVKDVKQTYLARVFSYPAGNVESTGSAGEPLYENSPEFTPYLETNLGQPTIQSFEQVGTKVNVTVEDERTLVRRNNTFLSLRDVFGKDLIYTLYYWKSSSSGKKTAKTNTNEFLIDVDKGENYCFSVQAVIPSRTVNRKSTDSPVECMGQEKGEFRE

Substance: D3H44 Fab heterodimer, H L124R_S186K / L V133G_S176D_T178D_T180E
Change in KD with respect to wild type (-(log(KD design) - log(KD wt))) [1]: -0.07
Kd [2]: 0.18 nM
Change in KD with respect to wild type (-(log(KD design) - log(KD wt))) [3]: -0.07
Kd [3]: 0.18 nM

Substance: D3H44 H1L1 Fab heterodimer of LCCA sets 9571 and 9572 (H1 L124W_L143F_K145T_Q179E; L1 S131K_V133A_S176T_T178L)
Change in median values of KD of h1|1 Fab heterodimer compared to wild type (-(log(KD design)-log(KD wt))) [5]: -0.21 log units
Kd [5]: 0.26 nM

Substance: D3H44 Fab heterodimer, heavy L124R_Q179K / light Q124E_V133G_S176D_T178E_T180E
Change in KD of h2|2 Fab heterodimer with respect to wild type (-(log(KD design) - log(KD wt))) [1]: -0.15
Kd [4]: 0.22 nM

Substance: D3H44 Fab heterodimer, H1 F122C_C233S / L1 S121C_C214S (H1L1 Fab of LCCA Set # 9043)
Kd [6]: 0.16 nM

Substance: D3H44 Fab heterodimer, heavy L124E_L143D_K145T / light Q124K_V133G_S176R_T178R
Change in KD of h1|1 Fab heterodimer with respect to wild type (-(log(KD design) - log(KD wt))) [1]: -0.02
Kd [4]: 0.16 nM

Substance: D3H44 H1L1 Fab heterodimer of LCCA set 9082 (H1 K145T_Q179E; L1 S131K)
Change in median values of KD of h1|1 Fab heterodimer compared to wild type (-(log(KD design)-log(KD wt))) [5]: -0.01 log units
Kd [5]: 0.16 nM

Substance: D3H44 H1L1 Fab heterodimer of LCCA sets 9786 and 9785 (H1 Q179K; L1 Q124E_T178E_T180E)
Change in median values of KD of h1|1 Fab heterodimer compared to wild type (-(log(KD design)-log(KD wt))) [5]: 0.1 log units
Kd [5]: 0.13 nM

Substance: D3H44 Fab heterodimer, H L124R_D146N_Q179K / L V133G_Q160E_S176D_T180E
Change in KD with respect to wild type (-(log(KD design) - log(KD wt))) [1]: -0.04
Kd [2]: 0.17 nM

Substance: D3H44 Fab heterodimer, H1 L143E_K145T_Q179D / L1 Q124R_Q160K_T178R (H1L1 of LCCA set 9620)
Change in KD with respect to wild type (-(log(KD design) - log(KD wt))) [7]: 0.39
Kd [8]: 0.06 nM

Substance: D3H44 Fab heterodimer, H L124R_S186K / L V133G_S176D_T178E_T180E
Change in KD with respect to wild type (-(log(KD design) - log(KD wt))) [1]: -0.17
Kd [2]: 0.23 nM
Change in KD with respect to wild type (-(log(KD design) - log(KD wt))) [3]: -0.17
Kd [3]: 0.23 nM

Substance: D3H44 Fab heterodimer, H L124R_S186R / L Q124E_V133G_S176D_T178D_T180E
Change in KD with respect to wild type (-(log(KD design) - log(KD wt))) [1]: -0.21
Kd [2]: 0.26 nM
Change in KD with respect to wild type (-(log(KD design) - log(KD wt))) [3]: -0.21
Kd [3]: 0.26 nM

Continued, values first:

Change in KD of h2|2 Fab heterodimer with respect to wild type (-(log(KD design) - log(KD wt))) [1]: -0.16
Kd [4]: 0.23 nM
Substance: D3H44 Fab heterodimer, heavy L124R_Q179K / light V133G_S176D_T178E_T180E

Change in KD with respect to wild type (-(log(KD design) - log(KD wt))) [1]: -0.23
Kd [2]: 0.26 nM
Change in KD with respect to wild type (-(log(KD design) - log(KD wt))) [3]: -0.23
Kd [3]: 0.26 nM
Substance: D3H44 Fab heterodimer, H L124R_S186K / L Q124E_V133G_S176D_T178D_T180E

Change in KD of h1|1 Fab heterodimer with respect to wild type (-(log(KD design) - log(KD wt))) [1]: -0.24
Kd [4]: 0.27 nM
Substance: D3H44 Fab heterodimer, heavy L124E_L143D_K145M / light Q124K_V133G_Q160K_S176R

Change in median values of KD of h1|1 Fab heterodimer compared to wild type (-(log(KD design)-log(KD wt))) [5]: 0.1 log units
Kd [5]: 0.12 nM
Substance: D3H44 H1L1 Fab heterodimer of LCCA sets 9101 and 9100 (H1 L124A_Q179K; L1 Q124E_V133W_T180E)

Change in median values of KD of h1|1 Fab heterodimer compared to wild type (-(log(KD design)-log(KD wt))) [5]: -0.04 log units
Kd [5]: 0.17 nM
Substance: D3H44 H1L1 Fab heterodimer of LCCA set 9066 (H1 F122C_L124E; L1 Q124C_V133G_S176R)

Change in KD with respect to wild type (-(log(KD design) - log(KD wt))) [1]: -0.04
Kd [2]: 0.17 nM
Change in KD with respect to wild type (-(log(KD design) - log(KD wt))) [3]: -0.04
Kd [3]: 0.17 nM
Substance: D3H44 Fab heterodimer, H L124R_S186R / L V133G_S176D_T178D_T180E

Change in KD of h1|1 Fab heterodimer with respect to wild type (-(log(KD design) - log(KD wt))) [1]: -0.15
Kd [4]: 0.22 nM
Substance: D3H44 Fab heterodimer, heavy L124E_L143D_K145M / light Q124K_V133G_S176R_T178K

Change in KD of h1|1 Fab heterodimer with respect to wild type (-(log(KD design) - log(KD wt))) [1]: -0.08
Kd [4]: 0.19 nM
Substance: D3H44 Fab heterodimer, heavy L124E_L143D_K145T / light Q124K_V133G_S176R_T178K

Change in median values of KD of h1|1 Fab heterodimer compared to wild type (-(log(KD design)-log(KD wt))) [5]: 0.04 log units
Kd [5]: 0.14 nM
Substance: D3H44 H1L1 Fab heterodimer of LCCA set 9060 (H1 A139W_L143E_K145T_Q179E; L1 F116A_Q124R_L135V_T178R)

Change in KD with respect to wild type (-(log(KD design) - log(KD wt))) [1]: -0.1
Kd [2]: 0.2 nM
Change in KD with respect to wild type (-(log(KD design) - log(KD wt))) [3]: -0.1
Kd [3]: 0.2 nM
Substance: D3H44 Fab heterodimer, H L124R_D146N_Q179K / L Q124E_V133G_S176D_T178E_T180E

Change in KD with respect to wild type (-(log(KD design) - log(KD wt))) [1]: -0.01
Kd [2]: 0.16 nM
Substance: D3H44 Fab heterodimer, H L124R_D146N_Q179K / L V133G_S176D_T178E_T180E
